The source of these data is PMC12796321, “The genetic and biochemical basis of human leading strand synthesis”.

Data set [1] has as its target POLE1 ISC mutant;POLE2;POLE3;POLE4 (human;human;human;human, UniProt Q07864;P56282;Q9NRF9;Q9NR33 1-2286;1-527;1-147;1-117, C651S;C654S|||). Kind of data set: EMSA; EMSA: 30 nM DNA, 30-120 nM protein; protein dilution buffer 25 mM Hepes pH 7.5, 100 mM NaCl, 10% glycerol, 0.5 mM EDTA, 1 mM DTT, 0.01% NP-40; 5x reaction buffer 175 mM Hepes pH 7.4, 100 mM NaCl, 10 mM DTT, 500 ug/ml BSA; on ice 20 min (legends: 15 min); native TBE gel at 4 C. The settings on record: protein: recombinant;recombinant;recombinant;recombinant, tags: N-terminal streptavidin tag;;;, copies: 1;1;1;1. In general terms: In EMSA bound probe runs differently from free probe, usually more slowly.

Data set [2] addresses T1, POLE1 (Pol epsilon catalytic subunit);POLE2;POLE3;POLE4 DNA binding mutant (DB/DBM) (human;human;human;human, UniProt Q07864;P56282;Q9NRF9;Q9NR33 1-2286;1-527;1-147;1-117, |||A44L;R45D;K47E;K51E). Put plainly: EMSA; binding abolished; EMSA: 30 nM DNA, 30-120 nM protein; protein dilution buffer 25 mM Hepes pH 7.5, 100 mM NaCl, 10% glycerol, 0.5 mM EDTA, 1 mM DTT, 0.01% NP-40; 5x reaction buffer 175 mM Hepes pH 7.4, 100 mM NaCl, 10 mM DTT, 500 ug/ml BSA; on ice 20 min (legends: 15 min); native TBE gel at 4 C. Particulars: protein: recombinant;recombinant;recombinant;recombinant; tags: N-terminal streptavidin tag;;;; copies: 1;1;1;1; label: 5' 6FAM on strand 1; blunt.

Data set [3] concerns the target T1, POLE1 (Pol epsilon catalytic …). Put plainly: EMSA; EMSA: 30 nM DNA, 30-120 nM protein; protein dilution buffer 25 mM Hepes pH 7.5, 100 mM NaCl, 10% glycerol, 0.5 mM EDTA, 1 mM DTT, 0.01% NP-40; 5x reaction buffer 175 mM Hepes pH 7.4, 100 mM NaCl, 10 mM DTT, 500 ug/ml BSA; on ice 20 min (legends: 15 min); native TBE gel at 4 C. Particulars: protein: recombinant;recombinant;recombinant;recombinant; tags: N-terminal streptavidin tag;;;; copies: 1;1;1;1; label: 5' 6FAM.

The target in data set [4] is POLE1 (Pol epsilon catalytic subunit);POLE2 (human;human, UniProt Q07864;P56282 1-2286;1-527, |). Kind of data set: EMSA; without POLE3-POLE4; EMSA: 30 nM DNA, 30-120 nM protein; protein dilution buffer 25 mM Hepes pH 7.5, 100 mM NaCl, 10% glycerol, 0.5 mM EDTA, 1 mM DTT, 0.01% NP-40; 5x reaction buffer 175 mM Hepes pH 7.4, 100 mM NaCl, 10 mM DTT, 500 ug/ml BSA; on ice 20 min (legends: 15 min); native TBE gel at 4 C. Particulars: protein: recombinant;recombinant; tags: N-terminal streptavidin tag;; copies: 1;1; label: 5' 6FAM.
POLE1 (Pol epsilon catalytic subunit);POLE2, sequence (Q07864 whole entry, chain 1 of 2): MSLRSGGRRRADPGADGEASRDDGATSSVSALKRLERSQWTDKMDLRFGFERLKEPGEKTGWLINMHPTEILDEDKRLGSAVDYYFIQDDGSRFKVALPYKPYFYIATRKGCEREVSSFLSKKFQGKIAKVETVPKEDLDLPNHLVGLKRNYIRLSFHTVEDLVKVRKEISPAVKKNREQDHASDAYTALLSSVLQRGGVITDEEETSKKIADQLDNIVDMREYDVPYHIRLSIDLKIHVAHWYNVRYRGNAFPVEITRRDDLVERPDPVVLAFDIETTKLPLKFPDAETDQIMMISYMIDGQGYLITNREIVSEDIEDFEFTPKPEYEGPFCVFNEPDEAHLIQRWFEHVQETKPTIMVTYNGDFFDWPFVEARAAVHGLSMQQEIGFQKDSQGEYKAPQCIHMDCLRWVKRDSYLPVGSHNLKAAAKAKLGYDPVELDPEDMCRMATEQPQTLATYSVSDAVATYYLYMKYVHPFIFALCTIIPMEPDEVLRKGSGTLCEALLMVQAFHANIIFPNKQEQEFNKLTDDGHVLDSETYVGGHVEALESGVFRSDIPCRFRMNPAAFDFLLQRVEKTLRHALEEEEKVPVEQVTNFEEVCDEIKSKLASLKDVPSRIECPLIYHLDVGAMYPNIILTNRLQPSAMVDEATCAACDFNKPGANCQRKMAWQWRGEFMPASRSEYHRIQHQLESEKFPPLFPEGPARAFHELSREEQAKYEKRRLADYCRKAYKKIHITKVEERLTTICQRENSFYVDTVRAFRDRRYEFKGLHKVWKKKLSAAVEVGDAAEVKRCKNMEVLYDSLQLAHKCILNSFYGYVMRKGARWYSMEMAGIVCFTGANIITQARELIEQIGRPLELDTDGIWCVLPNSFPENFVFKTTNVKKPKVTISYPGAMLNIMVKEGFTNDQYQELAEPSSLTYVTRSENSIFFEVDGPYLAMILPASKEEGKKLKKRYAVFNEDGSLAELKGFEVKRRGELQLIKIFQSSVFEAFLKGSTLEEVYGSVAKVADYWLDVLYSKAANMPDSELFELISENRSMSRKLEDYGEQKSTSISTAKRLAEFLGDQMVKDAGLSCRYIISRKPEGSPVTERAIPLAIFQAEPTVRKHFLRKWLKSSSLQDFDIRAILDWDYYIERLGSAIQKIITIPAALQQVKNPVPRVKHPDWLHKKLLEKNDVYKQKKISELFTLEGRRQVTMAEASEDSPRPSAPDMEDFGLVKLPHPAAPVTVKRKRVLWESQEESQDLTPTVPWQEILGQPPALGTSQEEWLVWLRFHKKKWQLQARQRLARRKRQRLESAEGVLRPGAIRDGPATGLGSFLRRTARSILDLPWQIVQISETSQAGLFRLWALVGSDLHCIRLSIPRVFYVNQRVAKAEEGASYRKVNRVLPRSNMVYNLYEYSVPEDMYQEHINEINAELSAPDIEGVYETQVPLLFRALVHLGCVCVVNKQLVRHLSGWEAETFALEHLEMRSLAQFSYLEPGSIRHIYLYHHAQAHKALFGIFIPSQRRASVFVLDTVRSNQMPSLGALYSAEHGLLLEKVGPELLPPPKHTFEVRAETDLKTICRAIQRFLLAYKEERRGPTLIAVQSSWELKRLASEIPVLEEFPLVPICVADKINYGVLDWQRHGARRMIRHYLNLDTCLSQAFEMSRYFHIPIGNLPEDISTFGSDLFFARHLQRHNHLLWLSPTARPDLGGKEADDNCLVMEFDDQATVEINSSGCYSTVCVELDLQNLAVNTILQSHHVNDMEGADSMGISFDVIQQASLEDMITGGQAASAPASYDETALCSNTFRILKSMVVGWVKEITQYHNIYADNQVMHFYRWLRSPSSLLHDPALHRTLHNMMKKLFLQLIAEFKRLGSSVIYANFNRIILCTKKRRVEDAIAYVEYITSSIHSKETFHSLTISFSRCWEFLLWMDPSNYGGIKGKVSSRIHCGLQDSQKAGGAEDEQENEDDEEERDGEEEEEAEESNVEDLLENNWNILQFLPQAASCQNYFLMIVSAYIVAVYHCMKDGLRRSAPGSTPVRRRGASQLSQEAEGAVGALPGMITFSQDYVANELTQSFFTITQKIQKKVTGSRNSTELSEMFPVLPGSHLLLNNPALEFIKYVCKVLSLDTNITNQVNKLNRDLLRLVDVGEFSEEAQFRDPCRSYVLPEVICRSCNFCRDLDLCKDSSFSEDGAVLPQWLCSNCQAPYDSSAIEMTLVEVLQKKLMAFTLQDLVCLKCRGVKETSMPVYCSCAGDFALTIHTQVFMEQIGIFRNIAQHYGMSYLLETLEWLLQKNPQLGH
POLE1 (Pol epsilon catalytic subunit);POLE2, sequence (P56282 whole entry, chain 2 of 2): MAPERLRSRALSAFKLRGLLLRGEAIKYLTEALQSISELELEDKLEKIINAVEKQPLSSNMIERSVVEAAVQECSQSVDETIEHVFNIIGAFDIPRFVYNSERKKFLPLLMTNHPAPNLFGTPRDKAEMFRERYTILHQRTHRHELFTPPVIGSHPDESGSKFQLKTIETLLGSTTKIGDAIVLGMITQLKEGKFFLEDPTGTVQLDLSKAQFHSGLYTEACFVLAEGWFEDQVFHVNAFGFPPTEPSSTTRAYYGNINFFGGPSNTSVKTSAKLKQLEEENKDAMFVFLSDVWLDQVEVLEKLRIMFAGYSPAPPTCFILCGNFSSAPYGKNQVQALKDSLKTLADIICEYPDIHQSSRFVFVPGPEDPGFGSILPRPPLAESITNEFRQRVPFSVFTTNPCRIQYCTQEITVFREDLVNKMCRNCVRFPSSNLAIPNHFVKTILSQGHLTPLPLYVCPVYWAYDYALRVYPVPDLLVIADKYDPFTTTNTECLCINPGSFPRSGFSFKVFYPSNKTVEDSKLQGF

POLE1 ISC mutant;POLE2;POLE3;POLE4, sequence (Q07864 whole entry C651S/C654S, chain 1 of 4): as the sequence (Q07864 whole entry, chain 1 of 2) above, with C651S, C654S counted along it
POLE1 ISC mutant;POLE2;POLE3;POLE4, sequence (P56282 whole entry, stated change not applied, chain 2 of 4): as the sequence (P56282 whole entry, chain 2 of 2) above
POLE1 ISC mutant;POLE2;POLE3;POLE4, sequence (Q9NRF9 whole entry, stated change not applied, chain 3 of 4): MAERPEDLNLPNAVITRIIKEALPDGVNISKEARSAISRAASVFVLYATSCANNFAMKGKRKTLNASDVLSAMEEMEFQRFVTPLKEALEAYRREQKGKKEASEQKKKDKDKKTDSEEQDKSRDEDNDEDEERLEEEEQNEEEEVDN
POLE1 ISC mutant;POLE2;POLE3;POLE4, sequence (Q9NR33 whole entry, stated change not applied, chain 4 of 4): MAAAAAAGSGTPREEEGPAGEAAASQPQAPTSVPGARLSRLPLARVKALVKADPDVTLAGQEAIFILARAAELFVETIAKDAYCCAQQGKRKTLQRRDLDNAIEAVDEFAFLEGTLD
T1 sequence (Q07864 whole entry, stated change not applied, chain 1 of 4): as the sequence (Q07864 whole entry, chain 1 of 2) above
T1 sequence (P56282 whole entry, stated change not applied, chain 2 of 4): as the sequence (P56282 whole entry, chain 2 of 2) above
T1 sequence (Q9NRF9 whole entry, stated change not applied, chain 3 of 4): as the sequence (Q9NRF9 whole entry, stated change not applied, chain 3 of 4) above
T1 sequence (Q9NR33 whole entry A44L/R45D/K47E/K51E, chain 4 of 4): as the sequence (Q9NR33 whole entry, stated change not applied, chain 4 of 4) above, with A44L, R45D, K47E, K51E counted along it

B1: EMSA dsDNA 49 bp (dsDNA)
DNA 1: AGCTACCATGCCTGCACGAATTAAGCAATTCGTAATCATGGTCATAGCT
DNA 2: AGCTATGACCATGATTACGAATTGCTTAATTCGTGCAGGCATGGTAGCT
Regarding B1, the binding result in data set [1] (label: 5' 6FAM on strand 1, blunt) was “binds”; in data set [2], “no binding”.

B2: EMSA leading strand fork (dsDNA)
DNA 1: B1 DNA 1
DNA 2: CTACAGTTCGTCAGGATTCC
DNA 3: AGCTATGACCATGATTACGAATTGCTTGGAATCCTGACGAACTGTAG
In the case of B2, the binding result in data set [1] (label: 5' 6FAM on strand 1, fork 1:3 (27 bp) 2:3 (20 bp), 22 nt 5' flap on strand 1) is given as “binds”.

B3: EMSA ssDNA 49-mer (ssDNA)
DNA: B1 DNA 1
Consider B3, for which the binding result in data set [1] (label: 5' 6FAM), in data set [3] and in data set [4] was “binds” in each case.
